Reference: US20190016785A1 (HUMABS BIOMED, published 2019)

B1: HBC34-V7 (antibody, V domains shown)
VH: ELQLVESGGGWVQPGGSQRLSCAASGRIFRSFYMSWVRQAPGKGLEWVATINQDGSEKLYVDSVKGRFTISRDNAKNSLFLQMNNLRVEDTAVYYCAAWSGNSGGMDVWGQGTTVSVSS
VL: SYELTQPPSVSVSPGQTVSIPCSGDKLGNKNVCWFQHKPGQSPVLVIYEVKYRPSGIPERFSGSNSGNTATLTISGTQAMDEAAYFCQTFDSTTVVFGGGTRLTVL
notes: also called variant 7; HMB34-V7
B2: HBC34 (antibody, V domains shown)
VH: ELQLVESGGGWVQPGGSQRLSCAASGRIFRSFYMSWVRQAPGKGLEWVATINQDGSEKLYVDSVKGRFTISRDNAKNSLFLQMNNLRVEDTAVYYCAAWSGNSGGMDVWGQGTTVSVSS
VL: SYELTQPPSVSVSPGQTVSIPCSGDKLGNKNVCWFQHKPGQSPVLVIYEVKYRPSGIPERFSGSNSGNTATLTISGTQAMDEAAYFCQTWDSTTVVFGGGTRLTVL
notes: also called human monoclonal antibody HBC34; WT

What was measured:
[1] = target: HBsAg of HBV genotype D (GenBank J02203, ayw3) (hepatitis B virus, genotype D, UniProt P03138 164-389); assay: flow cytometry, permeabilized transfected Hep2 cells, 5000 to 7 ng/ml
HBsAg P120T = HBsAg P120T (hepatitis B virus, genotype D, UniProt Q913A6 175-400); assay: flow cytometry, permeabilized transfected Hep2 cells, 5 µg/ml

Row | Binder | binding result [1] | binding result (HBsAg P120T)
1 | B1 | binds | –
2 | B2 | – | binds
